In patent publication US20040072268A1 (published 2004):

B1: BRE (other)
chain: MSPEVALNRISPMLSPFISSVVRNGKVGLDATNCLRITDLKSGCTSLTPGPNCDRFKLHIPYAGETLKWDIIFNAQYPELPPDFIFGEDAEFLPDPSALQNLASWNPSNPECLLLVVKELVQQYHQFQCSRLRESSRLMFEYQTLLEEPQYGENMEIYAGKKNNWTGEFSARFLLKLPVDFSNIPTYLLKDVNEDPGEDVALLSVSFEDTEATQVYPKLYLSPRIEHALGGSSALHIPAFPGGGCLIDYVPQVCHLLTNKVQYVIQGYHKRREYIAAFLSHFGTGVVEYDAEGFTKLTLLLMWKDFCFLVHIDLPLFFPRDQPTLTFQSVYHFTNSGQLYSQAQKNYPYSPRWDGNEMAKRAKGCQGSRDACSPWEQVLAFAVAKTGCKLLQPQRNWPSSRGPPWRASEGERTAQ
notes: also called BRCC45; BRCC45/BRE
B2: GST-BRCA1 fragment F2 (BRCA1 residues 260-553) (other)
chain: KYQGSSVSNLHVEPCGTNTHASSLQHENSSLLLTKDRMNVEKAEFCNKSKQPGLARSQHNRWAGSKETCNDRRTPSTEKKVDLNADPLCERKEWNKQKLPCSENPRDTEDVPWITLNSSIQKVNEWFSRSDELLGSDDSHDGESESNAKVADVLDVLNEVDEYSGSSEKIDLLASDPHEALICKSERVHSKSVESNIEDKIFGKTYRKKASLPNLSHVTENLIIGAFVTEPQIIQERPLTNKLKRKRRPTSGLHPEDFIKKADLAVQKTPEMINQGTNQTEQNGQVMNITNSGH
notes: Produced in bacteria; also called fragment 2; not shown: glutathione S-transferase (GST) fusion tag
B3: GST-BRCA1 fragment F5 (BRCA1 residues 1005-1313) (other)
chain: EHSMSPEREMGNENIPSTVSTISRNNIRENVFKEASSSNINEVGSSTNEVGSSINEIGSSDENIQAELGRNRGPKLNAMLRLGVLQPEVYKQSLPGSNCKHPEIKKQEYEEVVQTVNTDFSPYLISDNLEQPMGSSHASQVCSETPDDLLDDGEIKEDTSFAENDIKESSAVFSKSVQKGELSRSPSPFTHTHLAQGYRRGAKKLESSEENLSSEDEELPCFQHLLFGKVNNIPSQSTRHSTVATECLSKNTEENLLSLKNSLNDCSNQVILAKASQEHHLSEETKCSASLFSSQCSELEDLTANTNTQ
notes: Produced in bacteria; also called fragment 5; not shown: glutathione S-transferase (GST) fusion tag
B4: GST-BRCA1 fragment F1 (BRCA1 residues 1-324) (other)
chain: MDLSALRVEEVQNVINAMQKILECPICLELIKEPVSTKCDHIFCKFCMLKLLNQKKGPSQCPLCKNDITKRSLQESTRFSQLVEELLKIICAFQLDTGLEYANSYNFAKKENNSPEHLKDEVSIIQSMGYRNRAKRLLQSEPENPSLQETSLSVQLSNLGTVRTLRTKQRIQPQKTSVYIELGSDSSEDTVNKATYCSVGDQELLQITPQGTRDEISLDSAKKAACEFSETDVTNTEHHQPSNNDLNTTEKRAAERHPEKYQGSSVSNLHVEPCGTNTHASSLQHENSSLLLTKDRMNVEKAEFCNKSKQPGLARSQHNRWAGS
notes: Produced in bacteria; also called fragment 1; not shown: glutathione S-transferase (GST) fusion tag
B5: GST-BRCA1 fragment F3 (BRCA1 residues 502-802) (other)
chain: LKRKRRPTSGLHPEDFIKKADLAVQKTPEMINQGTNQTEQNGQVMNITNSGHENKTKGDSIQNEKNPNPIESLEKESAFKTKAEPISSSISNMELELNIHNSKAPKKNRLRRKSSTRHIHALELVVSRNLSPPNCTELQIDSCSSSEEIKKKKYNQMPVRHSRNLQLMEGKEPATGAKKSNKPNEQTSKRHDSDTFPELKLTNAPGSFTKCSNTSELKEFVNPSLPREEKEEKLETVKVSNNAEDPKDLMLSGERVLQTERSVESSSISLVPGTDYGTQESISLLEVSTLGKAKTEPNKCV
notes: Produced in bacteria; also called fragment 3; not shown: glutathione S-transferase (GST) fusion tag
B6: GST-BRCA1 fragment F4 (BRCA1 residues 758-1064) (other)
chain: LQTERSVESSSISLVPGTDYGTQESISLLEVSTLGKAKTEPNKCVSQCAAFENPKGLIHGCSKDNRNDTEGFKYPLGHEVNHSRETSIEMEESELDAQYLQNTFKVSKRQSFAPFSNPGNAEEECATFSAHSGSLKKQSPKVTFECEQKEENQGKNESNIKPVQTVNITAGFPVVGQKDKPVDNAKCSIKGGSRFCLSSQFRGNETGLITPNKHGLLQNPYRIPPLFPIKSFVKTKCKKNLLEENFEEHSMSPEREMGNENIPSTVSTISRNNIRENVFKEASSSNINEVGSSTNEVGSSINEIGSS
notes: Produced in bacteria; also called fragment 4; not shown: glutathione S-transferase (GST) fusion tag

Tests used:
truncated BRCA1 (1-509) = target: T1, truncated BRCA1 (1-509) (Homo sapiens (Human), UniProt P38398 1-509); assay: affinity purification of the truncated BRCA1 complex from a stable 293-derived cell line (co-purification; may be indirect)
T1 construct: Stably expressed in a 293-derived cell line; keeps the nuclear localization signal and the Ring domain; also called BRCA1 truncation

[1] = target: T2, (His)6-FLAG®-BRCC36 protein (Homo sapiens, UniProt P46736 1-316); assay: GST pull-down: 5 µg (His)6-FLAG-BRCC36 with GST-BRCA1 fragment, anti-FLAG western blot
T2 construct: Produced in bacteria and purified; also called recombinant BRCC36; C6.1A; not shown: (His)6 and FLAG tags
T2 sequence (P46736 whole entry, the tested form may be a part): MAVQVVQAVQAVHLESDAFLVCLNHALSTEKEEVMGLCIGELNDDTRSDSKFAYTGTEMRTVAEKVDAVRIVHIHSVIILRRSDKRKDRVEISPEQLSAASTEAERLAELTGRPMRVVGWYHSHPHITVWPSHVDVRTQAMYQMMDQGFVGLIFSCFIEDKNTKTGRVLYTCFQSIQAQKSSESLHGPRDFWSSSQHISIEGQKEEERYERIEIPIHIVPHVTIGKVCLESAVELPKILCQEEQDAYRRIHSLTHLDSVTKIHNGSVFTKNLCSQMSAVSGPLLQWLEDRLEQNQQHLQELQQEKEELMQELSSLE
Procedure: (§1) Recombinant BRCA1 and BARD1 was purified as described (Chen, et al. (2002) J. Biol. Chem. 277:22085-22092). […] Gluthatione-sepharose beads (Pharmacia, Peapack, N.J.), previously equilibrated in binding buffer, were added to the samples and inverted for an additionnal 2 hours at 4° C. Beads were collected by centrifugation at 2000×g, 30 seconds, washed several times in binding buffer containing 500 mM KCl and 0.1% NP40 and resuspended in 2× SDS loading buffer. Proteins were resolved by SDS-PAGE and western blot analysis was performed using anti-FLAG® antibodies (SIGMA, St. Louis, Mo.).

[2] = target: T3, Jab1/CSN5 subunit of signalosome, recombinant (UniProt Q92905 1-334, limits assumed); assay: protein-protein interaction assay with GST-BRCA1 fragments
T3 construct: Produced in recombinant form as a control JAMM domain protein; the construct is not described
T3 sequence (Q92905 whole entry, the tested form may be a part): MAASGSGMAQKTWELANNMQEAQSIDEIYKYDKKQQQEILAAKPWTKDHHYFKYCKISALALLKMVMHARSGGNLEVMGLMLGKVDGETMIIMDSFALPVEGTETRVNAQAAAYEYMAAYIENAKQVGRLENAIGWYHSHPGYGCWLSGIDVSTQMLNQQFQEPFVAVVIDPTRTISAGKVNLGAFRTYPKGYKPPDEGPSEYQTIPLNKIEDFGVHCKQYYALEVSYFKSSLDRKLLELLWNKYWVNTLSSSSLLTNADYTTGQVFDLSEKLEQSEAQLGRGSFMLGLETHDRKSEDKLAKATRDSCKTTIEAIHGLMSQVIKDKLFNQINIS
Procedure: as §1

Binder | binding result (truncated BRCA1 (1-509)) | binding result [1] | binding result [2]
B1 | no binding |  | 
B2 |  | no binding | no binding
B3 |  | no binding | no binding
B4 |  |  | no binding
B5 |  |  | no binding
B6 |  |  | no binding
